Experimental data as given in the DeepSol protein solubility set.

Assay: soluble on expression in E. coli; label from the status in PepcDB or PDB records

| Sequence | soluble on expression in E. coli |
| --- | --- |
| SNTTEILTSVDVLGTHSQTGTQQSNMYTSTQKTELEIDNKDSVTECSKDMKEDGLSFVDIVLSKAASALDEKEKQLAVANEIIRSLSDEVMRNEIRITSLQGDLTFTKKCLENARSQISEKDAKINKLMEKDFQVNKEIKPY | soluble |
| GPGSMHVSSPQRAKSEASQPPNGSPPLSSSEPAAVHLYDLDTVFLSKTVISLTDVFTNSTDGPFDLSPLCAPQQQGVEEQQRLQQAAATTASSPSTGDAHCSPSSGATHAHMCSTSLPFSGGSTLRPKAVARGADGQWRTVSTDRGAPASSAFTTACNKPPSQEAHARMLLVPLDSYHFLLTYHDVDVAGQLRGRCDKQTAMATMERLSAASPGCRPPRSGICVVRRLEGEQRGATKASSAATAVLAGAASATRPTLSRIAHGLPLDAFDGWVRDYTVYGLSCNEAVLRAAWEDKARERAEGTLAMPAGAVVEVGESAAPGHESAGGGGSGEERRVTGGGNSRGDNVGGVHISVPPASGSSAEATVEGAAALAPQLSDAPSVLVPTDGAAVGEGKDAATFASPDAARAAMLSPSLDRLHCSSTTSSSSTATPTPSPPTERSEEGGKVGGTVSTTMSASPASTAAQQQQQQNDVLWEEERQRTQRAAAQLRHRFLVSDSAQHALWALEVHLPAMKVRAVSPAEFYALEVEESDEERCQQLPGTARMMATMVTMKHRRHAALQKHERILLMHLHRDWRFLAGRQRLQSRAAARPSQVTATLSRARPAPTHRGRARHRRQIR | soluble |
| MGSDKIHHHHHHMNFEKIEQAYDLLLENVQTIQNQLGTNIYDAMIEQNAAYVANQHETDLVVNNNQTLKQLDLTKEEWRRAYQFLLIKANQTEPMQYNHQFTPDSIGFILSFLVDQLVPTQKVTVLEIGSGTGNLAQTILNASQKDLDYLGIEVDDLLIDLSASIADVMQADISFAQGDAVRPQILKESQVILGDLPIGYYPDDQIASRYQVASPNEHTYAHHLLMEQSLKYLEKDGFAILLAPNDLLTSPQSDLLKGWLQEQANIVAMIALPPNLFGKAAMAKSIFVLQKKAARSLTPFVYPLQSLQEPEAIQKFM | not soluble |
| MKIAIIGATGHAGSAIFKEALKRGHEVTGYVRHPDKSVGILPPDADLIQQDAFTLTREQLTGYDAVIDAFATTVEQAYLHIDLADHLIHELRNTDKPRVIFILGAGSLKNGDQTLYDTLKKDPHAAAFINTPLNQFRELQLLRWTDNVNWLGISPSANFQPGPATAYVRGKDELLKDDSGKSVLNSDTLAVALLDELENPTIKQARFTARNALEHHHHHH | soluble |
| MDIKACYQNAKALLEGHFLLSSGFHSNYYLQSAKVLEDPKLAEQLALELAKQIQEAHLNIECVCSPAIGGILAGYELARALGVRFIFTERVDNTMALRRGFEVKKNEKILVCEDIITTGKSAMECAKVLEEKGAQIVAFGALANRGICKRAHSHLKAQEGACLPSHLPLFALEDFVFDMHKPSSCPLCATSVAIKPGSRGN | not soluble |
| MGSDKIHHHHHHMNIQDLRYFHELVNLKSYTKTAEKFGVSQPTITAAVKRLENRFGGTFLIRDQPHKSIIITRLGVQFDEHVQSILNEINIVEEEIKQNQNASIPFGLPPIIGRNYFPKIVSQLFAKGLLHRLNVIENGSYDLYHLLLEGYINFSMLGLTKVNVEPGIKLEVVKSYPMCIVVSKTHPLATKKAISFKEIANENFIGLSSDYIHTKALDRMLKKSKINLNTIYRSPDVTVVKNIVAQNLGISYLTTLSITENDDVISIPLLDKDQPKFILAAATRENHIMTDAEEEFWEILTQISLRRQVLTSTLPS | not soluble |
| MGNYMTYIVGLTGGIGSGKTTIANLFTDLGVPLVDADVVAREVVAKDSPLLSKIVEHFGAQILTEQGELNRAALRERVFNHDEDKLWLNNLLHPAIRERMKQKLAEQTAPYTLFVVPLLIENKLTALCDRILVVDVSPQTQLARSAQRDNNNFEQIQRIMNSQVSQQERLKWADDVINNDAELAQNLPHLQQKVLELHQFYLQQAENKNALEHHHHHH | soluble |
| MGHHHHHHSHMVPGGKPILCPRRTTAQLGPRRNPAWSLQAGRLFSTQTAEDKEEPLHSIISSTESVQGSTSKHEFQAETKKLLDIVARSLYSEKEVFIRELISNASDALEKLRHKLVSDGQALPEMEIHLQTNAEKGTITIQDTGIGMTQEELVSNLGTIARSGSKAFLDALQNQAEASSKIIGQFGVGFYSAFMVADRVEVYSRSAAPGSLGYQWLSDGSGVFEIAEASGVRTGTKIIIHLKSDCKEFSSEARVRDVVTKYSNFVSFPLYLNGRRMNTLQAIWMMDPKDVREWQHEEFYRYVAQAHDKPRYTLHYKTDAPLNIRSIFYVPDMKPSMFDVSRELGSSVALYSRKVLIQTKATDILPKWLRFIRGVVDSEDIPLNLSRELLQESALIRKLRDVLQQRLIKFFIDQSKKDAEKYAKFFEDYGLFMREGIVTATEQEVKEDIAKLLRYESSALPSGQLTSLSEYASRMRAGTRNIYYLCAPNRHLAEHSPYYEAMKKKDTEVLFCFEQFDELTLLHLREFDKKKLISVETDIVVD | soluble |
| MILKTTLELVIDVKNNEKKIRTHSWKTKKIPPKKGEVSGQKLMVEKKSSKIFIENLKCQGNSAKNIFVFHLDLLHIKKLKNLNISMSSTDPILDISFDKPVYYPGDNMKLTVSVDTKRPLNARSVMFRCRGFRNRTVSFLNKYGIAWICKDGKNELPVGRLEQKFQFELGKDCPPTYKDGKIIYKVRLEIDQPWSRPLFIEKEFKMVHKLADQKMSQVMTYTSSPRFDALFSNGQPTFKVTMPKFTLYPGETTEFKLEVENHSSSTVKKIYAELEAEPFPLYHIYGNTKAKGKMHVLVAPYSTQKFTIPFTIPTDLTASFHTCGSSLKYTMKFGLVTDSWLTTDPALALVVSIGELESEEKKDEALKTPPPPPYTA | not soluble |
| MTKLGYVMTKSSAKNFKIYINGSAKGFKNIIISGAKAWNPSPYLNTVSIGNDVRPNYTVSSSGTNKGSVLAVCNTTYYKSNKLISKNEITLYKGFRSLSTNHKIETIVHEFGHGFGLGHVKTKNAIMLDKGFINKTKPQTDDFNGIKALYKLEHHHHHH | soluble |
| MTRNGTTSLQHDEMDTTSPPSGSGSGTAPPTTATSPPDYATAATLRSTPAQMSAAITVDLVVAAQREANFLRMIDRKAPLLYEPDVVNHALRRYETFWLPMQAAHPDLNVIPPLDVHWVWHTHMLSPIHYQEDCEKLVGKIIDHKLLSSDEIQKRYDSSVRAWDSYCSAEPYDFLASQTPPTAYKTKCNYDIAGAVQRQRNFNYQVSLPHYTSAKFLSDAVKRYIQFLLLKQTYADQFLTPCYDFDIIWHTHQVHPSSYLRDCTAIFGSLLKHDDTVNDRTKGSKLLKGEALTKKLWTTHFDEPFWRRGCMFRGHNAPAFLGFESQDLACISYGDIHVPSISLKDIPVQREQLRLKLCYGNKKVTTFNADLSQKQVTKSGFSLVWQPTESSTCASIVKFPFERRAAKDLTVELEIFDKMFLQRKDLIKLIGKATLDQLLPPSNSKSAHNVAELQLKASKDSEFTAKVNVTTSVNLNRELQLLVGDFVERQLSADSHLAYLAQCASLNRGALNANSTVHIASHSMVDTRDGTKYTVQVIHSAPLLLSMILVYGREQRLLSMAHLIGADSLPSRDQLDNNLVPFLPHLSNAEERAFVILNKEGDYAIIKGKWSGFSRKQSATKGQKAKPGNPGRLHVDAFNLLKNTVQKLEVPSADGSALFLIGDAQARLPGKRIECRSTNTAEQIASIFCVATLFVLCNPDKIRSRNDSTSVGHQAHKWPLTLACGYGRQLPTNRLLLSADQDGLGGCEIAPMLMCGVGCDGAACGACGACGACGACGGCGGCGGCGGCGGCG | not soluble |
| MGSDKIHHHHHHMATTTIYEDLSAAYDLENMQALMATKDLLGAMLRIHFILEAFLDIWCNKITNCEDFFDLKRFTSFDTKLEISKKLGLPSELAVVFKLFNKIRNKFAHRPNYVICSNDLDNIHQAINQINTHDNHSKFTMIVFNEREIRWDTPDIPIIDSLLLNYFTLSQKVNDVFANEFSKRNISFTIQGQQA | not soluble |
| MIKLVAFDLDGTIGNTLPMCIQAFKKATQPYIGHELSDEEMVHTFGLNEEGMIGCVVDEPYRQQALNDFYVIYKELHQEMCPTPFEGIRELIALLKQKGIIVALITGKGINSCDITLKQFNMKDSFAKVITGNAERNIKSEALKELLHDYHLAANEIVYVGDALSDITECRKANVMCLSAAWSIPQNEVTALENSNPKNVFYSISSLFKYL | not soluble |
| MSLTKIVIIGGVAGGASAAARARRLSEDAEIIMFERGPYVSFANCGLPYHIGGDIKERSNLLLQTPESFLARFNVDVRTMNEVLRINRAAKTITVRNLLDQSEYDENYDFLLLSPGAGPVIPPIPGIQNPLTHSLRNIPDMDKIIQTLQMNKPEHATVVGGGFIGLEMMEAFHHLGIKTTLIEMADQVMTPVDREMAGFAHAEIRAKGIDLRLGAALKSVEYRPAATLPSAESGESLEHKHVEGELDLLLSNGDTLTTDILIMAIGVRPETKLAAEAGLQLGELGGIWVNEQMQTSDPAIYAVGDAVEEKDFVTGKQTLVPLAGPANRQGRMAADNMLGRNESYQGTQGTAICKIFDLAVASTGKNEKQLKREGIAYEKVYVHTASHASYYPGAEVVSFKMLFDPQTGKIFGAQAVGKDGIDKRIDVMAVAQRAGMTVEQLQHLELTYAPPFGSAKDVINQAAFVATNLIKGDAKAIHFDEIDNLTDEQVLLDVRNPMELQNMGYLPGAINIPVDQLRQHMNELPKDKEIVIYCQVGLRGNVAYRQLVNNGFKARNLIGGYRTYKFAKAEGHHHHHH | soluble |
| YASQSAGKEYYKHIEKIIVDNDVYEKSLEGERTFDINYQGIKINADLIKDGKHELTIVNKKDGDILITFIKKG | not soluble |
| MSLKENNMDKAHIGFIGLGLMGAAMVECLQKAGHAVTVLGNRDRTGVEAALARGATEAAHARAVAEASDIVMLCMGTSAQVESRIYGDDGVLAGTREGQVVIDFGTSLPASTRRIGGDLAGKGATYLDAPLGRTPAHARDGLLNIMCSGDKATFDRVKPVLHTLGENVFHLGALGNGHTIKLINNCYSMTTACAMAEAFAIADATGIERQALYNVMAAGPNHSGMMDFINAYANGGRIDLAFTVANAAKDVGYYRQMATEMGLFSRMSIAADATLREARDGGDGGLMVPQMIDWMVRHLGEEGHHHHHH | soluble |
| GAMRIMRPDDANVAGNVHGGTILKMIEEAGAIISTRHCNSQNGERCVAALARVERTDFLSPMCIGEVAHVSAEITYTSKHSVEVQVHVMSENILTGTKKLTNKATLWYVPLSLKNVDKVLEVPPIVYLRQEQEEEGRKRYEAQKLERMETK | soluble |
| ACAWLEAQEEEEVGFPVRPQVPLRPMTYKAAVDLSHFLKEKGGLEGLIHSQRRQDILDLWIYHTQGYFPDWQNYTPGPGVRYPLTFGWCYKLVPVEPDKVEEANKGENTSLLHPVSLHGMDDPEREVLEWRFDSRLAFHHVARELHPEYFKN | soluble |
| MSLTQVRQTDSGDSLETARPADLLVLLDSLRQREATLNAEVIDLQNTLNALQASGNTDQAALESAQARLAALSILVGAVGATGPGVMITIDDPGPGVAPEVMIDVINELRAAGAEAIQINDAHRSVRVGVDTWVVGVPGSLTVDTKVLSPPYSILAIGDPPTLAAAMNIPGGAQDGVKRVGGRMVVQQADRVDVTALRQPKQHQYAQPVKEGHHHHHH | soluble |
